The values that follow come from article PMC10698143, “Phosphorylation of MIF by PIP4K2a is necessary for cilia biogenesis” (Cell Death & Disease, 2023).

For the experiment, the target named is T1, PIP4K2a on the HuProt human protein chip (human, UniProt P48426 1-406).
T1 construct: Phosphatidylinositol-5-phosphate 4-kinase type 2 alpha, human recombinant protein of the HuProt chip; construct not described; source: human recombinant protein, highly purified, spotted on the HuProt human protein chip
T1 sequence (looked up): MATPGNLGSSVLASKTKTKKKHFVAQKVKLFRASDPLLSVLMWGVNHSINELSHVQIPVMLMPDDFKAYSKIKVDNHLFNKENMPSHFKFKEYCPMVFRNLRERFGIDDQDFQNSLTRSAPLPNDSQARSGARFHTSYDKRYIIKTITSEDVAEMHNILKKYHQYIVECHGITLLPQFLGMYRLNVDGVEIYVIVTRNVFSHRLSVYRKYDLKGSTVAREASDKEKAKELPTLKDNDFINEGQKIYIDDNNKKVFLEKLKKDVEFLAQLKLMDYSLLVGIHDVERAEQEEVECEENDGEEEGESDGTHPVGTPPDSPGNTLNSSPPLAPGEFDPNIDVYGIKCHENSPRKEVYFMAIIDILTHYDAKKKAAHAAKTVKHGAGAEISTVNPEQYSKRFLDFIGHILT
The experiment in a line: peptide or protein array; HuProt human protein chip (>21,000 purified human recombinant proteins on nitrocellulose-coated slides), renatured in 50 mM Tris-HCl pH 8.0, 100 mM NaCl, 1 mM DTT, 0.3% Tween 20, blocked with 5% BSA; probed with 50 nM purified human MIF for 1 h; detected with rabbit anti-MIF and Cy3 anti-rabbit IgG; hit if SNR of both duplicates over 1.2. The conditions noted are these: both partners purified.

B1: recombinant human MIF (rhMIF) (natural protein, UniProt P14174 1-115, looked up)
chain: MPMFIVNTNVPRASVPDGFLSELTQQLAQATGKPPQYIAVHVVPDQLMAFGGSSEPCALCSLHSIGKIGGAQNRSYSKLLCGLLAERLRISPDRVYINYYDMNAANVGWNNSTFA
notes: No catalogue number printed; also called purified human MIF protein; human recombinant MIF protein; source: bought: R&D Systems
As to B1, the binding result is “binds”.
